Test results as given in US20030199671A1 (published 2003).
Starred links: 1 amine or outer side, 2 acyl side, 3 side chain; linkers in the order of their positions; H or OH if unused. Primed or numbered codes have the meaning given here. code X(3) = -NH-(CH2CH2O)2-CH2CH2- (from -X-NH2 = -NH-(CH2CH2O)2-CH2CH2-NH2), C(COCCOCC[*:2])N[*:1]; code Z = not defined here; Su = not defined here

Legend:
[1] = biological target: T1, human IgG4 (human, UniProt P01861-1 1-327 = IgG part); experiment: anisotropy; pH 7.5 - salt
T1 construct: Calbiochem; plasma IgG4 in anisotropy studies, myeloma-derived (cat. 400126) in batch/column studies; also called hIgG4

[2] = biological target: T2, human IgG1 (human, UniProt P01857-1 1-330 = IgG part); experiment: anisotropy; pH 7.5 - salt
T2 construct: Calbiochem; human plasma IgG1 in anisotropy studies, myeloma-derived (cat. 400120) in batch/column studies; also called hIgG1

[3] = biological target: T3, human IgG2 (human, UniProt P01859-1 1-326 = IgG part); experiment: anisotropy; pH 4.0 - salt
T3 construct: Calbiochem; plasma IgG2 in anisotropy studies, myeloma-derived (cat. 400122) in batch/column studies; also called hIgG2

[4] = biological target: T4, human IgG3 (human, UniProt P01860-1 1-377); experiment: anisotropy; pH 4.0 - salt
T4 construct: Calbiochem; plasma IgG3 in anisotropy studies, myeloma-derived (cat. 400124) in batch/column studies; also called hIgG3

[5] = biological target: T1, human IgG4; experiment: anisotropy; pH 4.0 - salt
[6] = biological target: T2, human IgG1; experiment: anisotropy; pH 4.0 - salt
[7] = biological target: T4, human IgG3; experiment: anisotropy; pH 7.5 + salt
[8] = biological target: T4, human IgG3; experiment: anisotropy; pH 9.5 + salt
[9] = biological target: T4, human IgG3; experiment: anisotropy; pH 4.0 + salt
[10] = biological target: T3, human IgG2; experiment: batch binding, immobilised ligand
Protocol: (§1) IgG targets were diluted into 10 mM phosphate buffer containing 150 mM NaCl and 0.01% Tween 20, pH 7.2 (PBST) or 50 mM Tris buffer containing, 150 mM NaCl and 0.01% Tween-20, pH 7.5 (TBST). Batch (static) binding and elution studies were conducted in a 96-well assay filterplate (Millipore MultiScreen-HV, with 0.45 μm Durapore membrane, product no. MAHVN4510). The target was allowed to incubate with the resin for 1-1.5 hours with shaking at room temperature. Unbound target was collected by centrifugation of samples from the assay plate directly into a low-UV absorbing 96-well collection plate (Costar, product no. 3635 or Greiner, product no. 655801). The unbound target was then quantitated by reading the absorbance at 280 nm (normalized to 1 cm pathlength, 1.4 mg/ml A280 extinction coefficient) of the collection plate on a microplate spectrophotometer (Molecular Devices Corp., SPECTRAmax PLUS) against a buffer blank.
(§2) The percentage bound target was determined by subtracting the mass determined as unbound from the corresponding condition's control values (control non-filtered added directly to the collection plate and/or the negative control). The assay plate was washed (3×) with 200 μl of binding buffer by vacuum filtration followed by addition of 100 μl of various elution conditions (e.g.: 0.1 M sodium bicarbonate buffer, pH 8.5 and/or 0.1 M sodium citrate buffer, pH 4.0). After a 30-60 minute incubation with shaking at room temperature, the eluted target was collected by centrifugation of the assay plate into another collection plate and quantitated in a similar manner. Percent elution of total load was then determined to characterize elution recovery efficiency under various conditions.

[11] = biological target: T4, human IgG3; experiment: batch binding, immobilised ligand
Protocol: as §1, §2

[12] = biological target: T1, human IgG4; experiment: batch binding, immobilised ligand
Protocol: as §1, §2

[13] = biological target: T2, human IgG1; experiment: batch binding, immobilised ligand
Protocol: as §1, §2

[14] = biological target: T3, human IgG2; experiment: mini-column chromatography, immobilised ligand
Protocol: (§3) Thus, 250 μg of target (hIgG1, hIgG2, hIgG3, hIgG4, goat IgG and bovine IgG) at 0.250 mg/ml in PBST, pH 7.2 or TBST, pH 7.3 was loaded onto a 350 μl column (3×50 mm) run at 0.200 ml/min. flowrate (170 cm/hr). Flowthrough, elution and cleaning fractions were collected and assayed for total protein recovery by size-exclusion HPLC.

[15] = biological target: T1, human IgG4; experiment: mini-column chromatography, immobilised ligand
Protocol: as §3

[16] = biological target: T2, human IgG1; experiment: mini-column chromatography, immobilised ligand
Protocol: as §3

[17] = biological target: T5, human IgG (unfractionated, polyclonal); experiment: filterplate; 25 mg human IgG applied per ml resin
T5 construct: also called hIgG; polyclonal human IgG
Protocol: After incubation of the samples, with shaking, at room temperature for one hour, the supernatant liquid from each well, containing unbound IgG, was collected by centrifugation into the cognate well of a collection plate. The assay plate was washed three times with PBST (200 μl/wash) and bound IgG was eluted from the media samples by incubation for 30-60 minutes at room temperature in 100 μl Elution Buffer (100 mM CAPS, pH 11.5). Eluates were collected by centrifugation for analysis. Protein concentrations were determined from A₂₈₀ measurements and plotted as a function of mg human IgG bound per ml resin vs. mg human IgG applied per ml resin.
These were subsequently tested in batch filterplate format for relative static capacity, human IgG subtype and species specificity as previously described. In addition, total dynamic capacities were determined for comparison. […] The static capacity (mg IgG bound per ml resin) was measured at the 2.5 mg/ml target concentration (25 mg human IgG applied per ml resin).

[18] = biological target: T3, human IgG2; experiment: anisotropy; pH 7.5 - salt
[19] = biological target: T3, human IgG2; experiment: anisotropy; pH 4.0 + salt
[20] = biological target: T2, human IgG1; experiment: anisotropy; pH 4.0 + salt

T4 sequence (P01860 other isoform, or with tags, fused parts or gaps): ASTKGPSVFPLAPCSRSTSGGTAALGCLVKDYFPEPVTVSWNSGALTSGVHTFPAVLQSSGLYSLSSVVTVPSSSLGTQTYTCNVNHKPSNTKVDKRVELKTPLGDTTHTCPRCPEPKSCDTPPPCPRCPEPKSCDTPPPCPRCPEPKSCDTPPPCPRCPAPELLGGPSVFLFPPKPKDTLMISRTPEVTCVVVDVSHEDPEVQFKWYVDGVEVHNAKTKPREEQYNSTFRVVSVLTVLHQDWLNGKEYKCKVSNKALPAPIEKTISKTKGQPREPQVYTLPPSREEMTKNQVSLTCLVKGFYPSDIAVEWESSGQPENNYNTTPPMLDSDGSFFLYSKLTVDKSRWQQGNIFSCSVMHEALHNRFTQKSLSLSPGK
T1 sequence (P01861 other isoform, or with tags, fused parts or gaps): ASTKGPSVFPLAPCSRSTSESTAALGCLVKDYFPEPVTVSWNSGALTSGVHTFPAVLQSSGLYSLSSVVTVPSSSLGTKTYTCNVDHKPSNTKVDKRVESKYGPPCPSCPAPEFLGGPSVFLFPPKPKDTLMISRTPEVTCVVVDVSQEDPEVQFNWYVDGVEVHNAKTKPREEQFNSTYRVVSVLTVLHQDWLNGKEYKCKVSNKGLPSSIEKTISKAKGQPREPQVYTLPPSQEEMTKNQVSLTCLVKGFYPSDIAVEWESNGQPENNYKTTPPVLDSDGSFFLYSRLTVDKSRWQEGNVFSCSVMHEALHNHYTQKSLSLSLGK
T2 sequence (P01857 other isoform, or with tags, fused parts or gaps): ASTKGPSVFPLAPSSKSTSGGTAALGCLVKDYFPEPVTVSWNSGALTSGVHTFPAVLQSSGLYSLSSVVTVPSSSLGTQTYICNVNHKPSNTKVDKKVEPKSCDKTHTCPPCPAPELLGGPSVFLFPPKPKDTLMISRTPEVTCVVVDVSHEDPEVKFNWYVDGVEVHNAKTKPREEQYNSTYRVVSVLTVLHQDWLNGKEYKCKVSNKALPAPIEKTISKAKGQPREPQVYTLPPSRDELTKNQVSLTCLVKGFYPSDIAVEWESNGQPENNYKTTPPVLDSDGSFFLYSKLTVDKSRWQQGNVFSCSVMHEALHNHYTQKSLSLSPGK
T3 sequence (P01859 other isoform, or with tags, fused parts or gaps): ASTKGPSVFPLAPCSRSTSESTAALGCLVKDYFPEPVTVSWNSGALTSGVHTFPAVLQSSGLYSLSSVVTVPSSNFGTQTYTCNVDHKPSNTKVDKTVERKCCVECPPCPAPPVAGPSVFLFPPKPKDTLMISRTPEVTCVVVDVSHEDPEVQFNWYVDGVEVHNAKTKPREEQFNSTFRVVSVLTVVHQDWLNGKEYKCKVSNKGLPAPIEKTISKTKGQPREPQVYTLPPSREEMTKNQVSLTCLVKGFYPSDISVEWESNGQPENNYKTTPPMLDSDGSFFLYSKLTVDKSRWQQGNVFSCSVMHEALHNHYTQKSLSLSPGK

Row | Kd [4] | Kd [9] | Bound (% of Total Load) [10] | Bound (% of Total Load) [11] | Bound (% of Total Load) [12] | Bound (% of Total Load) [13] | Binder | also measured
1 | – | – | 21% | 0% | 15% | 31% | Ac-GDNPMCWRAHWWEDAYCINHEPGPEGGGK-NH2 (not fully specified (bridges); printed as Ac-GDNPMCWRAHWWEDAYCINHEPGPEGGGK-NH2; cysteine pairing not given here, Derivative of DX596 (Lys-Lys to Arg-Ala and adjacent Ser to His); immobilised) [DX1072] | –
2 | – | – | 2% | 0% | 1% | 7% | Ac-GDNPMCWRASWWEDAYCINHEPGPEGGGK-NH2 (not fully specified (bridges); printed as Ac-GDNPMCWRASWWEDAYCINHEPGPEGGGK-NH2; cysteine pairing not given here, Derivative of DX596 (two internal lysines replaced by arginine and alanine); immobilised) [DX1071] | –
3 | – | – | 82% | 0% | 59% | 87% | Ac-GDWGECTVTSYGELIWCGGLEPGPEGGGK-NH2 (not fully specified (bridges); printed as Ac-GDWGECTVTSYGELIWCGGLEPGPEGGGK-NH2; cysteine pairing not given here, Immobilised on Sepharose) [DX1070] | –

The remaining lines, values behind:

Row | Binder | Kd [4] | Kd [9] | Bound (% of Total Load) [10] | Bound (% of Total Load) [11] | Bound (% of Total Load) [12] | Bound (% of Total Load) [13] | also measured
4 | Ac-AGAATCSTSYWYYQWFCTDSPGPEGGGK-NH2 (not fully specified (bridges); printed as Ac-AGAATCSTSYWYYQWFCTDSPGPEGGGK-NH2; cysteine pairing not given here, immobilised in batch assays) [DX398] | 20 nM | 40 nM | – | – | – | – | Kd [1]: 3500 nM; Kd [2]: 4600 nM; Kd [3]: 1800 nM; Kd [5]: 1600 nM; Kd [6]: 2400 nM; Kd [7]: 300 nM; Kd [8]: 300 nM
5 | Ac-GDSWNCAFHHNEMVWCDDGGTPGPEGGGK-NH2 (not fully specified (bridges); printed as Ac-GDSWNCAFHHNEMVWCDDGGTPGPEGGGK-NH2; cysteine pairing not given here, Immobilised on Sepharose) [DX597] | – | – | 90% | 0% | 71% | 93% | –
6 | Ac-GDRRACSRDWSGALVWCAGHEPGPEGGGK-NH2 (not fully specified (bridges); printed as Ac-GDRRACSRDWSGALVWCAGHEPGPEGGGK-NH2; cysteine pairing not given here, immobilised on Sepharose in batch/column assays) [DX253] | – | – | 81% | 0% | 60% | 86% | bdg % (of Total Load) [10]: 63%; bdg % (of Total Load) [11]: 15%; bdg % (of Total Load) [12]: 40%; bdg % (of Total Load) [13]: 56%; binding efficiency [14]: > 90%; binding efficiency [15]: > 90%; binding efficiency [16]: > 90%
7 | Ac-GDDHMCVYTTWGELIWCDNH-{code X(3)-code Z-code X(3)-NH2} (not fully specified (bridges); printed as Ac-GDDHMCVYTTWGELIWCDNH-X-Z-X-NH2; cysteine pairing not given here; reading uncertain, DX249 derivative; immobilised) [DX911] | – | – | – | – | – | – | Static Cap. [17]: 9 mg/mL
8 | Ac-AGSYWCKIWDVCPQSPGPEGGGK-NH2 (not fully specified (bridges); printed as Ac-AGSYWCKIWDVCPQSPGPEGGGK-NH2; cysteine pairing not given here, immobilised in batch assays) [DX392] | 320 nM | 600 nM | – | – | – | – | –
9 | Ac-AGPHNCDDHYWYCKWFPGPEGGGK-NH2 (not fully specified (bridges); printed as Ac-AGPHNCDDHYWYCKWFPGPEGGGK-NH2; cysteine pairing not given here, immobilised in batch assays) [DX389] | 2500 nM | 1800 nM | – | – | – | – | –
10 | Ac-GDDHMCVYTTWGELIWCDNH-{code X(3)-Su-code X(3)-NH2} (not fully specified (bridges); printed as Ac-GDDHMCVYTTWGELIWCDNH-X-Su-X-NH2; cysteine pairing not given here; reading uncertain, DX249 derivative; immobilised) [DX909] | – | – | – | – | – | – | Static Cap. [17]: 11 mg/mL
11 | Ac-AGTYWCTFWELPCDPAPGPEGGGK-NH2 (cysteine pairing not given here, immobilised in batch/column assays) [DX404] | – | – | – | – | – | – | Kd [18]: 8600 nM; Kd [2]: 8800 nM; Kd [3]: 1000 nM; Kd [6]: 1500 nM; Kd [19]: 2000 nM; Kd [20]: 2000 nM
12 | Ac-AGYWYCWFPDRPECPLYPGPEGGGK-NH2 (not fully specified (bridges); printed as Ac-AGYWYCWFPDRPECPLYPGPEGGGK-NH2; cysteine pairing not given here) [DX413] | 840 nM | 1100 nM | – | – | – | – | –
13 | Ac-GDDHMCVYTTWGELIWCDNH-{code X(3)-NH2} (not fully specified (bridges); printed as Ac-GDDHMCVYTTWGELIWCDNH-X-NH2; cysteine pairing not given here, DX249 derivative; immobilised) [DX907] | – | – | – | – | – | – | Static Cap. [17]: 10 mg/mL
